# According to PMC12226364:
# Target: GST-EPAC1 (purified recombinant)
substance,measurement,value
"RanBP2 zinc finger domain (ZFD), 1171-1809 aa (from UniProt P49792 1171-1809) (domain or fragment)",shift of the AC50 of cAMP for EPAC1 GEF activity by RanBP2 ZFD (cAMP titration); maximal GEF activity also reduced,10 fold
